Experimental data taken from article PMC11501004.

Target: GST-LEA12^OR (Oryza rufipogon Griff.)
Test: MST
Conditions: scale: fold

Kd relative to that of LEA12^93-11: 0.143
B1: MBP-OsSAPK10 (natural protein)
chain: MDRAALTVGPGMDMPIMHDGDRYELVRDIGSGNFGVARLMRSRADGQLVAVKYIERGDKIDENVQREIINHRSLRHPNIIRFKEVILTPTHLAIVMEYASGGELFERICNAGRFSEDEARFFFQQLISGVSYCHSMQVCHRDLKLENTLLDGSTAPRLKICDFGYSKSSVLHSQPKSTVGTPAYIAPEVLLKKEYDGKIADVWSCGVTLYVMLVGAYPFEDPDEPKNFRKTIQRILGVQYSIPDYVHISPECRDLIARIFVANPATRISIPEIRNHPWFLKNLPADLMDDSKMSSQYEEPEQPMQSMDEIMQILAEATIPAAGSGGINQFLNDGLDLDDDMEDLDSDPDLDVESSGEIVYAM
